Results published in patent publication US20260001928A1 (CORTERIA PHARMACEUTICALS, priority 2022, published 2026).
*1 amine or outer side, *2 acyl side, *3 side chain or, on linkers, in order; H or OH if unused. Where no end group is shown, it is not given here. Side-chain parts run from the residue outwards. [ ]: non-standard residue; d: D form. The star is where a group is joined. C18 diacid = O=C(O)CCCCCCCCCCCCCCCCC(=O)*; C16 diacid = O=C(O)CCCCCCCCCCCCCCC(=O)*; γGlu = O=C(O)[C@H](CCC(=O)[*:2])N[*:1]; NMeI = CC[C@H](C)[C@H](NC)C(=O)O; Pentanoyl = CCCCC(=O)*; AEEA = NCCOCCOCC(=O)O; Aib = CC(C)(N)C(=O)O

T1: CRF1R receptor (UniProt P34998 24-415, limits assumed)
T1 sequence (looked up): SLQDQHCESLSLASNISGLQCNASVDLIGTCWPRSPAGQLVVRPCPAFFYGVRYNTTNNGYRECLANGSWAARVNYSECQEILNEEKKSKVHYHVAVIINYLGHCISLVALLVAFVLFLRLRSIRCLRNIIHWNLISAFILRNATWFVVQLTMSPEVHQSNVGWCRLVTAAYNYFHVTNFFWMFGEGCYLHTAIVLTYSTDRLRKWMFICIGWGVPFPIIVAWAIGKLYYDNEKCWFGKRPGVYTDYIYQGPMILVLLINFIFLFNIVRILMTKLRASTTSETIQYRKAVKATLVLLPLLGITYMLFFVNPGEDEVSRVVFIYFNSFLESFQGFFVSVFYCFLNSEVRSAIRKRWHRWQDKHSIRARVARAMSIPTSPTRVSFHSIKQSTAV

B1: SEQ ID NO 118 (peptide)
peptide: [NMeI]VLSLD[dV]PIKLK([AEEA-AEEA-γGlu-C18 diacid])KILLEQEKQKKQREQAETN[Aib]QILAQV-NH2
modifications: N-terminus assumed
SMILES: CC[C@H](C)[C@H](NC)C(=O)N[C@H](C(=O)N[C@@H](CC(C)C)C(=O)N[C@@H](CO)C(=O)N[C@@H](CC(C)C)C(=O)N[C@@H](CC(=O)O)C(=O)N[C@@H](C(=O)N1CCC[C@H]1C(=O)N[C@H](C(=O)N[C@@H](CCCCN)C(=O)N[C@@H](CC(C)C)C(=O)N[C@@H](CCCCNC(=O)COCCOCCNC(=O)COCCOCCNC(=O)CC[C@H](NC(=O)CCCCCCCCCCCCCCCCC(=O)O)C(=O)O)C(=O)N[C@@H](CCCCN)C(=O)N[C@H](C(=O)N[C@@H](CC(C)C)C(=O)N[C@@H](CC(C)C)C(=O)N[C@@H](CCC(=O)O)C(=O)N[C@@H](CCC(N)=O)C(=O)N[C@@H](CCC(=O)O)C(=O)N[C@@H](CCCCN)C(=O)N[C@@H](CCC(N)=O)C(=O)N[C@@H](CCCCN)C(=O)N[C@@H](CCCCN)C(=O)N[C@@H](CCC(N)=O)C(=O)N[C@@H](CCCNC(=N)N)C(=O)N[C@@H](CCC(=O)O)C(=O)N[C@@H](CCC(N)=O)C(=O)N[C@@H](C)C(=O)N[C@@H](CCC(=O)O)C(=O)N[C@H](C(=O)N[C@@H](CC(N)=O)C(=O)NC(C)(C)C(=O)N[C@@H](CCC(N)=O)C(=O)N[C@H](C(=O)N[C@@H](CC(C)C)C(=O)N[C@@H](C)C(=O)N[C@@H](CCC(N)=O)C(=O)N[C@H](C(N)=O)C(C)C)[C@@H](C)CC)[C@@H](C)O)[C@@H](C)CC)[C@@H](C)CC)C(C)C)C(C)C
B2: SEQ ID NO 120 (peptide)
peptide: Pentanoyl-VLSLD[dV]PIKLK([AEEA-AEEA-γGlu-C18 diacid])KILLEQEKQKKQREQAETN[Aib]QILAQV-NH2
SMILES: CCCCC(=O)N[C@H](C(=O)N[C@@H](CC(C)C)C(=O)N[C@@H](CO)C(=O)N[C@@H](CC(C)C)C(=O)N[C@@H](CC(=O)O)C(=O)N[C@@H](C(=O)N1CCC[C@H]1C(=O)N[C@H](C(=O)N[C@@H](CCCCN)C(=O)N[C@@H](CC(C)C)C(=O)N[C@@H](CCCCNC(=O)COCCOCCNC(=O)COCCOCCNC(=O)CC[C@H](NC(=O)CCCCCCCCCCCCCCCCC(=O)O)C(=O)O)C(=O)N[C@@H](CCCCN)C(=O)N[C@H](C(=O)N[C@@H](CC(C)C)C(=O)N[C@@H](CC(C)C)C(=O)N[C@@H](CCC(=O)O)C(=O)N[C@@H](CCC(N)=O)C(=O)N[C@@H](CCC(=O)O)C(=O)N[C@@H](CCCCN)C(=O)N[C@@H](CCC(N)=O)C(=O)N[C@@H](CCCCN)C(=O)N[C@@H](CCCCN)C(=O)N[C@@H](CCC(N)=O)C(=O)N[C@@H](CCCNC(=N)N)C(=O)N[C@@H](CCC(=O)O)C(=O)N[C@@H](CCC(N)=O)C(=O)N[C@@H](C)C(=O)N[C@@H](CCC(=O)O)C(=O)N[C@H](C(=O)N[C@@H](CC(N)=O)C(=O)NC(C)(C)C(=O)N[C@@H](CCC(N)=O)C(=O)N[C@H](C(=O)N[C@@H](CC(C)C)C(=O)N[C@@H](C)C(=O)N[C@@H](CCC(N)=O)C(=O)N[C@H](C(N)=O)C(C)C)[C@@H](C)CC)[C@@H](C)O)[C@@H](C)CC)[C@@H](C)CC)C(C)C)C(C)C
B3: SEQ ID NO 80 (peptide)
peptide: Pentanoyl-VLSLD[dV]PIKLK([γGlu-C16 diacid])KILLEQEKQKKQREQAETN[Aib]QILAQV-NH2
SMILES: CCCCC(=O)N[C@H](C(=O)N[C@@H](CC(C)C)C(=O)N[C@@H](CO)C(=O)N[C@@H](CC(C)C)C(=O)N[C@@H](CC(=O)O)C(=O)N[C@@H](C(=O)N1CCC[C@H]1C(=O)N[C@H](C(=O)N[C@@H](CCCCN)C(=O)N[C@@H](CC(C)C)C(=O)N[C@@H](CCCCNC(=O)CC[C@H](NC(=O)CCCCCCCCCCCCCCC(=O)O)C(=O)O)C(=O)N[C@@H](CCCCN)C(=O)N[C@H](C(=O)N[C@@H](CC(C)C)C(=O)N[C@@H](CC(C)C)C(=O)N[C@@H](CCC(=O)O)C(=O)N[C@@H](CCC(N)=O)C(=O)N[C@@H](CCC(=O)O)C(=O)N[C@@H](CCCCN)C(=O)N[C@@H](CCC(N)=O)C(=O)N[C@@H](CCCCN)C(=O)N[C@@H](CCCCN)C(=O)N[C@@H](CCC(N)=O)C(=O)N[C@@H](CCCNC(=N)N)C(=O)N[C@@H](CCC(=O)O)C(=O)N[C@@H](CCC(N)=O)C(=O)N[C@@H](C)C(=O)N[C@@H](CCC(=O)O)C(=O)N[C@H](C(=O)N[C@@H](CC(N)=O)C(=O)NC(C)(C)C(=O)N[C@@H](CCC(N)=O)C(=O)N[C@H](C(=O)N[C@@H](CC(C)C)C(=O)N[C@@H](C)C(=O)N[C@@H](CCC(N)=O)C(=O)N[C@H](C(N)=O)C(C)C)[C@@H](C)CC)[C@@H](C)O)[C@@H](C)CC)[C@@H](C)CC)C(C)C)C(C)C
B4: SEQ ID NO 66 (peptide)
peptide: [NMeI]VLSLD[dV]PIKLK([γGlu-C16 diacid])KILLEQEKQKKQREQAETNVQILAQV-NH2
modifications: N-terminus assumed
SMILES: CC[C@H](C)[C@H](NC)C(=O)N[C@H](C(=O)N[C@@H](CC(C)C)C(=O)N[C@@H](CO)C(=O)N[C@@H](CC(C)C)C(=O)N[C@@H](CC(=O)O)C(=O)N[C@@H](C(=O)N1CCC[C@H]1C(=O)N[C@H](C(=O)N[C@@H](CCCCN)C(=O)N[C@@H](CC(C)C)C(=O)N[C@@H](CCCCNC(=O)CC[C@H](NC(=O)CCCCCCCCCCCCCCC(=O)O)C(=O)O)C(=O)N[C@@H](CCCCN)C(=O)N[C@H](C(=O)N[C@@H](CC(C)C)C(=O)N[C@@H](CC(C)C)C(=O)N[C@@H](CCC(=O)O)C(=O)N[C@@H](CCC(N)=O)C(=O)N[C@@H](CCC(=O)O)C(=O)N[C@@H](CCCCN)C(=O)N[C@@H](CCC(N)=O)C(=O)N[C@@H](CCCCN)C(=O)N[C@@H](CCCCN)C(=O)N[C@@H](CCC(N)=O)C(=O)N[C@@H](CCCNC(=N)N)C(=O)N[C@@H](CCC(=O)O)C(=O)N[C@@H](CCC(N)=O)C(=O)N[C@@H](C)C(=O)N[C@@H](CCC(=O)O)C(=O)N[C@H](C(=O)N[C@@H](CC(N)=O)C(=O)N[C@H](C(=O)N[C@@H](CCC(N)=O)C(=O)N[C@H](C(=O)N[C@@H](CC(C)C)C(=O)N[C@@H](C)C(=O)N[C@@H](CCC(N)=O)C(=O)N[C@H](C(N)=O)C(C)C)[C@@H](C)CC)C(C)C)[C@@H](C)O)[C@@H](C)CC)[C@@H](C)CC)C(C)C)C(C)C

Each binder was assayed against human corticotropin-releasing factor 2a (CRF2a receptor) (human), Q13324 (assay: cell-based or functional assay).
human corticotropin-releasing factor 2a (CRF2a receptor) (human), Q13324, sequence (Q13324 20-411): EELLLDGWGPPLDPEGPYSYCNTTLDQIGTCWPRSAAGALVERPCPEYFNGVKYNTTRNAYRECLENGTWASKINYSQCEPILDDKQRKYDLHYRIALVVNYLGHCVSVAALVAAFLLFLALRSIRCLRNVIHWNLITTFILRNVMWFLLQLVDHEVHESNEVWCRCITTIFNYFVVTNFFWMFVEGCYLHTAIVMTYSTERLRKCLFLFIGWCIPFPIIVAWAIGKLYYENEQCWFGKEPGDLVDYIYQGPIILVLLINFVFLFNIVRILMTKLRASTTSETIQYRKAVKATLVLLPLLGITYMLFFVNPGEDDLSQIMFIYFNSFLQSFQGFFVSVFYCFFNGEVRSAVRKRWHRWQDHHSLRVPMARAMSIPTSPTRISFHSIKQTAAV

| EC50 [nM] (cAMP) | Binder |
| --- | --- |
| 0.6 nM | B1 |
| 1.33 nM | B2 |
| 0.35 nM | B3 |
| 1.05 nM | B4 |

Each binder was assayed against T1, CRF1R receptor (assay: cell-based or functional assay).

| Emax (% I) | Binder |
| --- | --- |
| 7% | B1 |
| 3% | B2 |
| 10% | B3 |
| 4% | B4 |
